Reference: US20140308707A1, “METHOD FOR PRODUCTION OF FACTOR VIII” (Novo Nordisk A/S, priority 2011, published 2014)
Several values for one entry are separate records, joined by “and”; a condition that tells them apart may be missing. Equal values may be shown once.

Experiments:
[1] = tested on: cell membrane of HEK293 cells; test: Homologous competition assay: binding of 125I-BDD-FVIII to the cell membrane with blocking agents; conditions: for % of total binding: 0.5 nM 125I-FVIII, 4° C., 2 hours, Annexin V 500 nM, OPLS 20 mM, Heparin 100 ug/mL, RAP 500 nM; for reduction of membrane attached FVIII: same experiment as Table 2
Experimental: The affinity of purified B-domain deleted factor VIII (BDD-FVIII) (kindly provided by J. Karlsson and L. Thim, Novo Nordisk A/S) to the cell membrane of HEK293 cells was investigated by a homologous competition assay using ^125I-BDD-FVIII and unlabelled BDD-FVIII. Cells were washed once in PBS+1% BSA. 5×10^5 cells were distributed to a microtiter well and the plate was cooled to 4° C. During blocking of the cell surface, binding of BDD-FVIII was examined. A constant concentration of ^125I-FVIII (0.5 nM) was added simultaneously with either Annexin V (0.5 μM, Sigma), Ortho-Phospho-L-serine (20 mM, Sigma), Heparin (100 μg mL-1, Leo Pharmaceuticals), and Receptor Associated Protein (RAP) 0.5 μM (kindly provided by H. H. Petersen, Novo Nordisk A/S) at 4° C. to prevent endocytosis.
The plate was incubated at 4° C. for 2 hours with gentle shaking. After centrifugation unbound (non-membrane attached) ^125I-FVIII was removed and cells were washed twice in ice-cold assay buffer (10 mM HEPES, 150 mM NaCl, 4 mM KCl, 11 mM glucose, 5 mM CaCl2, 1 mg ml^−1 BSA, pH 7.4). Surface bound ^125I-FVIII was counted on a gamma-counter. The experiments were performed twice in triplicate. Non-specific binding was estimated in the presence of 12000× excess of unlabeled BDD Factor VIII.
In an attempt to determine potent inhibitors of the cell membrane interaction, four proteins known for their specific effect in either: 1) blocking phosphatidylserine (annexin V), 2) interacting with the C2 domain of FVIII (OPLS), 3) interacting with receptors that facilitate internalisation followed by degradation such as LRP (Lipoprotein receptor-related protein) and HSPGs (heparin sulphate proteoglycans) were tested (RAP, heparin).

[2] = tested on: CHO DUKX B11 cells stably expressing BDD-FVIII; test: FVIII membrane displacement cell cultures (additives in culture medium, culture fluid and membrane bound fraction assayed); format: cell-based; conditions: 24 hours, serum free medium, OPLS 20 mM, F8 LC 1.38 μM, Lactadherin 0.15 μM, unit from b101
Experimental: The additives mentioned below (lactadherin, Factor VIII light chain and/or OPLS) were added to the culture medium and the cells were incubated for 24 hours following assaying of the culture fluid and the membrane bound fraction.

HKB11 cells [3] = test: Transient co-expression with F8, FVIII coagulation activity (two-stage chromogenic assay, coa); format: cell-based; conditions: for displacement of F8 from the cell surface into the supernatant: in words
Experimental: (§1) HEK293 cells were maintained in commercial FreeStyle medium supplemented with 50 U/mL penicillin and 50 ug/mL streptomycin. Cells were grown as suspension cells in shakers and incubated at 37° C. under 5% CO2 and 95% relative humidity conditions.
(§2) Cells were seeded at a density of 3×10^5 cells/mL and passaged every 3-4 days. For transfection experiments the cell culture was scaled up until the target density was reached. Viable and total cell concentrations were evaluated by Cedex (Innovartis) analysis. The instrument uses image analysis software for automated cell counting and viable cells were identified based on their ability to exclude trypan blue.
(§3) Plasmid DNA was transfected into HKB11 cells by 293 fectin following the manufacturer's recommendations. Conditioned medium was harvested on indicated days following gentle centrifugation of the suspension culture. The cell pellet was resuspended in FreeStyle medium containing 0.5M NaCl and after gentle centrifugation, a sample, representing the FVIII attached to the cell membrane was taken. Samples were stored at −80° C. until analysis.
(§4) FVIII coagulation activity was measured by a two-stage chromogenic assay (Coamatic Factor VIII analysis kit, Chromogenix). Factor VIII:Ag assay was performed using polyclonal antibodies from Affinity Biologicals (F8C-EIA). Both assays were done following the manufactures instructions and with in-house B-domain deleted affinity purified Factor VIII as standard.

HKB11 cells [4] = test: Transient co-expression with F8, Factor VIII:Ag ELISA; format: cell-based
Experimental: as §1, §2, §3, §4

In the case of RAP: Receptor Associated Protein (RAP), the “% of total binding” value [1] is reported as 106.6% and the “reduction of membrane attached FVIII” value [1] is reported as “no effect”.

With Heparin the “% of total binding” value [1] was 86.8% and the “reduction of membrane attached FVIII” value [1] was “small but not significant effect”.

`N[C@@H](COP(=O)(O)O)C(=O)O` [OPLS, Ortho-Phospho-L-serine, reference compound] was tested, and the “% of total binding” value [1] was 68.4%, the “reduction of membrane attached FVIII” value [1] was about 30% and the “supernatant average (activity of FVIII in the culture medium)” value (from here on “supernatant average”) [2] was 6000 mU/mL and 6347 mU/mL. For the same molecule, the “wash average (FVIII activity on the membrane)” value (“wash average” below) [2] was 1691 mU/mL.

B1: Annexin V: Ca++ dependent phospholipid-binding protein that react with phosphatidylserine (Sigma) (protein)
chain: MAQVLRGTVTDFPGFDERADAETLRKAMKGLGTDEESILTLLTSRSNAQRQEISAAFKTLFGRDLLDDLKSELTGKFEKLIVALMKPSRLYDAYELKHALKGAGTNEKVLTEIIASRTPEELRAIKQVYEEEYGSSLEDDVVGDTSGYYQRMLVVLLQANRDPDAGIDEAQVEQDAQALFQAGELKWGTDEEKFITIFGTRSVSHLRKVFDKYMTISGFQIEETIDRETSGNLEQLLLAVVKSIRSIPAYLAETLYYAMKGAGTDDHTLIRVMVSRSEIDLFNIRKEFRKNFATSLYSMIKGDTSGDYKKALLLLCGEDD
modifications: homo sapiens
In the case of B1, the “% of total binding” value [1] is reported as 28.5% and the “reduction of membrane attached FVIII” value [1] is reported as about 70%.

B2: Lactadherin: lactadherin, agent that binds to phosphatidylserine; added to medium or co-expressed with F8 (protein)
chain: LDICSKNPCHNGGLCEEISQEVRGDVFPSYTCTCLKGYAGNHCETKCVEPLGMENGNIANSQIAASSVRVTFLGLQHWVPELARLNRAGMVNAWTPSSNDDNPWIQVNLLRRMWVTGVVTQGASRLASHEYLKAFKVAYSLNGHEFDFIHDVNKKHKEFVGNWNKNAVHVNLFETPVEAQYVRLYPTSCHTACTLRFELLGCELNGCANPLGLKNNSIPDKQITASSSYKTWGLHLFSWNPSYARLDKQGNFNAWVAGSYGNDQWLQVDLGSSKEVTGIITQGARNFGSVQFVASYKVAYSNDSANWTEYQDPRTGSSKIFPGNWDNHSHKKNLFETPILARYVRILPVAWHNRIALRLELLGC
modifications: homo sapiens
notes: added to medium or co-expressed with F8
In the case of B2, the “supernatant average” value [2] is reported as 8085 mU/mL, the “wash average” value [2] is reported as 1406 mU/mL and the “supernatant average” value ([2]; listed as lactadherin) is reported as “further increases the amount of FVIII in the culture medium”. For the same molecule, the “wash average” value ([2]; listed as lactadherin) was “a decline in membrane bound FVIII is observed”, the “displacement of F8 from the cell surface into the supernatant” value (HKB11 cells [3]; day 3, viability ~90%) was “effectively displacement” and the “displacement of F8 from the cell surface into the supernatant” value (HKB11 cells [3]; day 4, viability ~80%) was “could no longer keep F8 in the supernatant”. For the same molecule, the “coa, supernatant” value (HKB11 cells [3]; harvest day 3, supernatant) was 5448 +/− 122 mU/ml, the “coa, wash” value (HKB11 cells [3]; harvest day 3, wash (0.5M NaCl, membrane attached FVIII)) was 640 +/− 116 mU/ml and the “coa, supernatant” value (HKB11 cells [3]; harvest day 4, supernatant) was 1044 +/− 425 mU/ml. For the same molecule, the “coa, wash” value (HKB11 cells [3]; harvest day 4, wash (0.5M NaCl, membrane attached FVIII)) was 3575 +/− 558 mU/ml, the “coa, supernatant” value (HKB11 cells [3]; harvest day 5, supernatant) was 327 +/− 13 mU/ml and the “coa, wash” value (HKB11 cells [3]; harvest day 5, wash (0.5M NaCl, membrane attached FVIII)) was 3510 +/− 46 mU/ml. For the same molecule, the “FVIII ELISA, supernatant” value (HKB11 cells [4]; harvest day 3, supernatant) was 530 ± 113 ng/mL, the “FVIII ELISA, wash” value (HKB11 cells [4]; harvest day 3, wash) was 67 ± 0 ng/mL and the “FVIII ELISA, supernatant” value (HKB11 cells [4]; harvest day 4, supernatant) was 270 ± 54 ng/mL. For the same molecule, the “FVIII ELISA, wash” value (HKB11 cells [4]; harvest day 4, wash) was 278 ± 37 ng/mL, the “FVIII ELISA, supernatant” value (HKB11 cells [4]; harvest day 5, supernatant) was 108 ± 119 ng/mL and the “FVIII ELISA, wash” value (HKB11 cells [4]; harvest day 5, wash) was 287 ± 33 ng/mL.
